# Laboratory results published in US20220323583A1, “Pharmaceutical Formulations of Bi-Specific Diabodies and Use of the Same” (MacroGenics, Inc., priority 2019, published 2022).
# Columns and labels:
# [1] = target: T1, soluble recombinant human IL-3 receptor alpha (rhIL3Rα) (Homo sapiens, UniProt P26951); experiment: ELISA (rhIL3Rα) DART-A quantitation assay (concentration, protein recovery); conditions: for Actual Concentration: target 20 ng/mL
# T1 construct: soluble recombinant human IL-3 receptor alpha (rhIL3Rα)
# T1 sequence (P26951 19-305 limits assumed): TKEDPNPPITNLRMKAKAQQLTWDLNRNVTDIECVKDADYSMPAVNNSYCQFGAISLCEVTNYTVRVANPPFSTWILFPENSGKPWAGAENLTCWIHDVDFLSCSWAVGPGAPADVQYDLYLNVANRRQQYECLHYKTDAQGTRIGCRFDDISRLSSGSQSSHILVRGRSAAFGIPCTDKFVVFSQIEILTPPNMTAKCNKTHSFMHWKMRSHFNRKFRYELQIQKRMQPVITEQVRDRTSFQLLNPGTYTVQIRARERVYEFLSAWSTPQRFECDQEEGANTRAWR
# Procedure: In brief, the assay plate was coated with soluble recombinant human IL-3 receptor alpha (rhIL3Rα) overnight. […] After addition of MSD Read Buffer, the plate was inserted into the Sector Imager 2400 Plate Reader. When a voltage was applied to the plate electrodes, the bound Sulfo-TAG label produces an ECL signal, which was captured by the plate reader. A quantitative measure of the ECL signal emitted by each well was recorded, and the ECL counts emitted by the standard calibrators were used to generate a standard curve using a 4-parameter logistic (4PL) fit.
# [2] = tested on: primary AML specimens (BMNC, PBMC); experiment: Incubation of primary AML bone marrow samples with DART-A; type: cell-based, human
# Excerpt: (§1) Upregulation of granzyme B and perforin levels in both CD8 and CD4 T cells was observed.
# [3] = SE-HPLC (protein aggregation: % main peak, % HMW, % LMW); type: physicochemical; conditions: for FLR SE-HPLC % HMW / FLR SE-HPLC % LMW / FLR SE-HPLC % Main Peak: 0.1 mg/mL solution, Stabilizer 2
# Procedure: FLR SE-HPLC analysis was performed to measure protein purity, monomer purity and protein stability. The FLR SE-HPLC configuration included a fluorescence (FLR) detector (λX=280 nm, λE=340 nm), a mobile phase composition of 350 mM Mobile Phase (175 mMNaH2PO4, 175 mMNa2SO, pH 6.3) and a TosoBio TSK G3000SWXL size exclusion column. Samples were diluted to 0.1 mg/mL and stored at 5±3° C. for 24 to 96 hours prior to analysis. Eight μg of protein (or 100 μL is sample concentration was below 0.1 mg/mL) was injected for each 30-minute run. HMW and LMW species and monomer peaks were monitored.
# Molm13 = experiment: Redirected killing of target cell line; type: cell-based
# Osmolality = type: physicochemical; conditions: Stabilizer 2
# [4] = tested on: soluble recombinant human CD3 (shCD3-Fos-Jun); experiment: CD3 binding ELISA (relative potency); conditions: Relative Potency vs DART-A reference standard, 1250 ng/mL dosing solution, Stabilizer 2
# soluble recombinant human CD3 (shCD3-Fos-Jun), sequence (P07766 23-126 limits assumed): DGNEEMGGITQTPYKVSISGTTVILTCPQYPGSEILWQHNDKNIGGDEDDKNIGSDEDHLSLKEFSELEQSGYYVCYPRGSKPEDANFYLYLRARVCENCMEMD
# Excerpt: The two CD3 chains (delta and gamma) contain either the Fos protein or the Jun protein to enhance proper folding and functionality of the CD3 complex. […] The soluble CD3-Fos-Jun, was coated on the surface of an ELISA plate. […] Quantification of bound probe antibody was achieved by addition of a colorimetric AP substrate (AP-Yellow 1 Component Substrate). Oxidation of AP-Yellow by AP yields a colored product that can be read at 405±10 nm. The assay was quantified by the intensity of color, measured using a spectrophotometer set to an optimal wavelength of 405±10 nm. Data were fitted to a four-parameter model with the following variable constraints: the maximum, minimum and slope of each dose response curve is set to be shared between all dose response curves on the plate; the EC50 was determined independently for each curve.
# [5] = tested on: primary ALL bone marrow samples; experiment: Incubation of primary ALL bone marrow samples with DART-A; type: cell-based, human; conditions: vs untreated control or Control DART
# Excerpt: as §1
# HT29 = experiment: Redirected killing of target cell line; type: cell-based; conditions: HT29 (CD123 negative)
# THP-1 = experiment: Redirected killing of target cell line; type: cell-based
# [6] = target: T2, recombinant Interleukin 3 Receptor (rhIL3-R) (Homo sapiens, UniProt P26951); experiment: CD123 binding ELISA (relative potency); conditions: Relative Potency vs DART-A reference standard, 1250 ng/mL dosing solution, Stabilizer 2
# T2 construct: The soluble IL3R was coated on the surface of an ELISA plate
# T2 sequence (P26951 19-305 limits assumed): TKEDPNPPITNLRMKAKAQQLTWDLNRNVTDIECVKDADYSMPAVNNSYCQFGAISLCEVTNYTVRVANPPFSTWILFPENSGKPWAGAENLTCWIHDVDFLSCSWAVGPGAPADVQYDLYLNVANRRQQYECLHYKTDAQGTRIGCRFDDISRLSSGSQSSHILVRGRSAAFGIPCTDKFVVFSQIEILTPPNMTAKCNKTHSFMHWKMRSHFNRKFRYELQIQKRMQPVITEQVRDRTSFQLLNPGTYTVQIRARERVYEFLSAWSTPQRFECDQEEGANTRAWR
# Excerpt: The soluble IL3R was coated on the surface of an ELISA plate. […] Quantification of bound probe antibody was achieved by addition of a colorimetric AP substrate (AP-Yellow 1 Component Substrate). Oxidation of AP-Yellow by AP yields a colored product that can be read at 405±10 nm. The assay was quantified by the intensity of color, measured using a spectrophotometer set to an optimal wavelength of 405±10 nm. Data were fitted to a four-parameter model with the following variable constraints: the maximum, minimum and slope of each dose response curve is set to be shared between all dose response curves on the plate; the EC50 was determined independently for each curve.
# [7] = Post Infusion (Infusion Time = 96 Hrs)
# [8] = Post Storage (Time = 72 Hrs), room temperature
# [9] = Post Infusion (Infusion Time = 48 Hrs)
# [10] = Post Storage (T = 72 Hrs), room temperature
molecule,measurement,setting,value
"DART-A: sequence-optimized CD123×CD3 bispecific diabody; chains SEQ ID NO:42 and SEQ ID NO:44 covalently bonded by a disulfide bond (protein, interchain disulfide bond; First Polypeptide Chain of DART-A; Second Polypeptide Chain of DART-A) chain 1: QAVVTQEPSLTVSPGGTVTLTCRSSTGAVTTSNYANWVQQKPGQAPRGLIGGTNKRAPWTPARFSGSLLGGKAALTITGAQAEDEADYYCALWYSNLWVFGGGTKLTVLGGGGSGGGGEVQLVQSGAELKKPGASVKVSCKASGYTFTDYYMKWVRQAPGQGLEWIGDIIPSNGATFYNQKFKGRVTITVDKSTSTAYMELSSLRSEDTAVYYCARSHLLRASWFAYWGQGTLVTVSSGGCGGGEVAALEKEVAALEKEVAALEKEVAALEK chain 2: DFVMTQSPDSLAVSLGERVTMSCKSSQSLLNSGNQKNYLTWYQQKPGQPPKLLIYWASTRESGVPDRFSGSGSGTDFTLTISSLQAEDVAVYYCQNDYSYPYTFGQGTKLEIKGGGSGGGGEVQLVESGGGLVQPGGSLRLSCAASGFTFSTYAMNWVRQAPGKGLEWVGRIRSKYNNYATYYADSVKDRFTISRDDSKNSLYLQMNSLKTEDTAVYYCVRHGNFGNSYVSWFAYWGQGTLVTVSSGGCGGGKVAALKEKVAALKEKVAALKEKVAALKE",Actual Concentration,"[1]; Final PS80 0.1 mg/mL, Post 24 Hr Storage and 96 Hr Admin",19.3 ng/mL
same,Actual Concentration,"[1]; Final PS80 0.1 mg/mL, T0",19.9 ng/mL
same,Actual Concentration,"[1]; Final PS80 0.12 mg/mL, Post 24 Hr Storage and 96 Hr Admin",20.6 ng/mL
same,Actual Concentration,"[1]; Final PS80 0.12 mg/mL, T0",21.6 ng/mL
same,DART-A Concentration derived from quantitation assay,"[1]; Study 1, Stabilizer 1, dual-pump infusion RT, High (5000 ng/mL), Expected or Control (T0)",313.7 ng/mL
same,DART-A Concentration derived from quantitation assay,"[1]; Study 1, Stabilizer 1, dual-pump infusion RT, High (5000 ng/mL), T = 24 hours",235.2 ng/mL
same,DART-A Concentration derived from quantitation assay,"[1]; Study 1, Stabilizer 1, dual-pump infusion RT, High (5000 ng/mL), T = 48 hours",294.3 ng/mL
same,DART-A Concentration derived from quantitation assay,"[1]; Study 1, Stabilizer 1, dual-pump infusion RT, High (5000 ng/mL), T = 72 hours",254.4 ng/mL
same,DART-A Concentration derived from quantitation assay,"[1]; Study 1, Stabilizer 1, dual-pump infusion RT, Low (100 ng/mL), Expected or Control (T0)",10.6 ng/mL
same,DART-A Concentration derived from quantitation assay,"[1]; Study 1, Stabilizer 1, dual-pump infusion RT, Low (100 ng/mL), T = 24 hours",6.7 ng/mL
same,DART-A Concentration derived from quantitation assay,"[1]; Study 1, Stabilizer 1, dual-pump infusion RT, Low (100 ng/mL), T = 48 hours",12.9 ng/mL
same,DART-A Concentration derived from quantitation assay,"[1]; Study 1, Stabilizer 1, dual-pump infusion RT, Low (100 ng/mL), T = 72 hours",11.0 ng/mL
same,"concentration as prepared, DART-A quantitation assay","[1]; Study 1, high concentration (target 5000 ng/mL)",5067.5 ng/mL
same,"concentration as prepared, DART-A quantitation assay","[1]; Study 1, low concentration (target 100 ng/mL)",116.7 ng/mL
same,DART-A Concentration derived from quantitation assay,"[1]; Study 2, Stabilizer 1, cassette 25° C., 100 rpm, High (5000 ng/mL), T = 0",5398.7 ng/mL
same,DART-A Concentration derived from quantitation assay,"[1]; Study 2, Stabilizer 1, cassette 25° C., 100 rpm, High (5000 ng/mL), T = 24 hours",5241.2 ng/mL
same,DART-A Concentration derived from quantitation assay,"[1]; Study 2, Stabilizer 1, cassette 25° C., 100 rpm, High (5000 ng/mL), T = 48 hours",4967.5 ng/mL
same,DART-A Concentration derived from quantitation assay,"[1]; Study 2, Stabilizer 1, cassette 25° C., 100 rpm, High (5000 ng/mL), T = 72 hours",4916.7 ng/mL
same,DART-A Concentration derived from quantitation assay,"[1]; Study 2, Stabilizer 1, cassette 25° C., 100 rpm, Low (100 ng/mL), T = 0",110.1 ng/mL
same,DART-A Concentration derived from quantitation assay,"[1]; Study 2, Stabilizer 1, cassette 25° C., 100 rpm, Low (100 ng/mL), T = 24 hours",115.5 ng/mL
same,DART-A Concentration derived from quantitation assay,"[1]; Study 2, Stabilizer 1, cassette 25° C., 100 rpm, Low (100 ng/mL), T = 48 hours",103.8 ng/mL
same,DART-A Concentration derived from quantitation assay,"[1]; Study 2, Stabilizer 1, cassette 25° C., 100 rpm, Low (100 ng/mL), T = 72 hours",106.2 ng/mL
same,DART-A Concentration derived from quantitation assay,"[1]; Study 3, Stabilizer 1, cassette 37° C., 100 rpm, Low (100 ng/mL), T = 0",111.4 ng/mL
same,DART-A Concentration derived from quantitation assay,"[1]; Study 3, Stabilizer 1, cassette 37° C., 100 rpm, Low (100 ng/mL), T = 72 hours",99.4 ng/mL
same,DART-A Concentration derived from quantitation assay,"[1]; Study 3, Stabilizer 1, cassette 37° C., 100 rpm, second group, target concentration not given, T = 0",5682.9 ng/mL
same,DART-A Concentration derived from quantitation assay,"[1]; Study 3, Stabilizer 1, cassette 37° C., 100 rpm, second group, target concentration not given, T = 72 hours",4661.6 ng/mL
same,leukemic cell population,[2],depletion of the leukemic cell population over time
same,residual T cells (CD4 and CD8),[2],expansion of the residual T cells
same,SE-HPLC species,"[3]; 0.1 mg/mL in Stabilizer 2 dosing solution, 72-hour RT storage and administration",no changes in the LMW and LMW
same,FLR SE-HPLC % HMW,[3]; [7],0.9%
same,FLR SE-HPLC % LMW,[3]; [7],0.9%
same,FLR SE-HPLC % Main Peak,[3]; [7],98.2%
same,FLR SE-HPLC % HMW,[3]; [8],0.8%
same,FLR SE-HPLC % LMW,[3]; [8],0.9%
same,FLR SE-HPLC % Main Peak,[3]; [8],98.4%
same,FLR SE-HPLC % HMW,[3]; T = 0 Hrs,0.8%
same,FLR SE-HPLC % LMW,[3]; T = 0 Hrs,0.9%
same,FLR SE-HPLC % Main Peak,[3]; T = 0 Hrs,98.4%
same,Max % Killing,Molm13,43%
same,Osmolality,"Osmolality; 10 ng/mL dosing solution, Post Infusion (Infusion Time = 48 Hrs)",274 mOsm/kg
same,Osmolality,"Osmolality; 10 ng/mL dosing solution, Post Storage (T = 72 Hrs), room temperature",275 mOsm/kg
same,Osmolality,"Osmolality; 10 ng/mL dosing solution, T = 0",275 mOsm/kg
same,Osmolality,"Osmolality; 20 ng/mL dosing solution, Post Infusion (Infusion Time = 96 Hrs)",276 mOsm/kg
same,Osmolality,"Osmolality; 20 ng/mL dosing solution, Post Storage (T =72 Hrs), room temperature",276 mOsm/kg
same,Osmolality,"Osmolality; 20 ng/mL dosing solution, T = 0",276 mOsm/kg
same,Osmolality,"Osmolality; 1250 ng/mL dosing solution, Post Infusion (Infusion Time = 48 Hrs)",276 mOsm/kg
same,Osmolality,"Osmolality; 1250 ng/mL dosing solution, Post Storage (T = 72 Hrs), room temperature",275 mOsm/kg
same,Osmolality,"Osmolality; 1250 ng/mL dosing solution, T = 0",275 mOsm/kg
same,"% Potency, CD3 binding",[4]; [9],92%
same,"% Potency, CD3 binding",[4]; [10],101%
same,"% Potency, CD3 binding",[4]; T = 0,111%
same,leukemic cell population,[5],depletion of the leukemic cell population over time
same,Max % Killing,HT29,No activity
same,"EC50, redirected killing",HT29; E:T = 10:1,No activity
same,Max % Killing,THP-1,40%
same,"% Potency, CD123 binding",[6]; [9],123%
same,"% Potency, CD123 binding",[6]; [10],140%
same,"% Potency, CD123 binding",[6]; T = 0,146%
